Test results taken from patent publication US20230340111A1 (published 2023).
Positions count from the first letter of the chain named. One block for each binder: values may come before it.

Columns and labels:
[1] = target: T1, human FOLR1 recombinant protein (extracellular domain of human folate receptor alpha) (human, UniProt P15328 25-233); test: SPR dual injection on immobilized human FOLR1, 250 nM; competitor (1st VHH, saturating) A3; by the legend the value is of the 2nd VHH
T1 construct: Bought recombinant protein (Sino Biological); also called hFOLR1; FR-alpha
T1 sequence (P15328 25-233): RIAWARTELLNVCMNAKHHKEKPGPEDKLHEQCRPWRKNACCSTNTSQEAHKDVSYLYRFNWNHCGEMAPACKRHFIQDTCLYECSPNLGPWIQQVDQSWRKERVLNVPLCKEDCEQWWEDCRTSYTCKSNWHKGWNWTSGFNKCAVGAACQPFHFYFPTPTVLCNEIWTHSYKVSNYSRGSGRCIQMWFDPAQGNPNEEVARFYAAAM
Description: (§1) Competitive binding characteristics of His₆-tagged VHHs were determined via surface plasmon resonance with a Biacore T200 instrument (GE Healthcare). Immobilization of human FOLR1 recombinant protein (Sino Biological) and regeneration were performed as described below for kinetic measurements.
(§2) Table 8: Side-by-side comparison of His₆-tagged VHHs A1, A2, A3, A4, A5 for binding to human FOLR1 to identify competitive binding characteristics. Binding was measured in surface plasmon resonance with immobilized human FOLR1 recombinant protein as the ligand. After saturation of the ligand with VHH 1 an equimolar mixture of VHH 1 and VHH 2 was injected. Percentages express the loss in response level of VHH 2, relative to the response when VHH 2 was injected alone.

[2] = target: T1, human FOLR1 recombinant protein …; test: SPR (Biacore T200), human FOLR1 immobilized on CM5, His6-tagged VHH as analyte, 1:1 fit
Description: The kinetic parameters of antigen binding by purified VHHs were determined via surface plasmon resonance with a Biacore T200 instrument (GE Healthcare). The human FOLR1 recombinant protein (Sino Biological) was immobilized in 10 mM sodium acetate, pH 5.5 on a CM5 chip (GE Healthcare) via amine coupling chemistry to 500 RU. His₆-tagged VHHs were analyzed in a twofold serial dilution in HBS (125 nM-0.488 nM for VHHs A4 and A5; 10 nM-0.039 nM for VHHs A1, A2 and A3) with an analyte flow rate of 30 µl/min. The association phase took 180 s (A4-A5) or 450 s (A1-A3) and the dissociation phase 600 s (A4-A5) or 900 s (A1-A3). Regeneration was done by a single injection of 50 mM glycine-HCl, pH 2.5, 2 M MgCl₂ for 30 s at 30 µl/min, followed by 120 s stabilization. Binding curves were fitted using a ‘1:1 (antigen:analyte)’ binding model in Biacore T200 evaluation software.

[3] = target: T1, human FOLR1 recombinant protein …; test: SPR dual injection on immobilized human FOLR1, 250 nM; competitor (1st VHH, saturating) A2; by the legend the value is of the 2nd VHH
Description: as §1, §2

[4] = target: T1, human FOLR1 recombinant protein …; test: SPR dual injection on immobilized human FOLR1, 250 nM; competitor (1st VHH, saturating) A5; by the legend the value is of the 2nd VHH
Description: as §1, §2

[5] = target: T1, human FOLR1 recombinant protein …; test: SPR (Biacore T200), single cycle kinetics, His6-tagged VHH immobilized on CM5, human FOLR1 as analyte, 1:1 fit
Description: The kinetic parameters of antigen binding for purified VHHs A1, A2 and A3 were determined via surface plasmon resonance with a Biacore T200 instrument (GE Healthcare) using single cycle kinetics mode. While example 4d provides a first and preferred way of assessing the kinetic parameters of antigen binding for VHHs using surface plasmon resonance, this example provides an alternative setup for using surface plasmon resonance to assess the kinetic parameters of antigen binding, inverting the analyte and immobilized ligand. His₆-tagged VHH A1, A2 or A3 was immobilized in 10 mM sodium acetate, pH 5.5 on a CM5 chip (GE Healthcare) via amine coupling chemistry to 160 RU. The human FOLR1 recombinant protein (Sino Biological) was analyzed in a threefold serial dilution in HBS (38.5 nM-0.47 nM) with an analyte flow rate of 30 µl/min. The association phase took 180 s for every concentration and the dissociation phase 900 s. Regeneration was done by a single injection of 50 mM glycine-HCl, pH 2.5, 2 M MgCl2 for 30 s at 30 µl/min, followed by 120 s stabilization. Binding curves were fitted using a ‘1:1 (antigen:analyte)’ binding model in Biacore T200 evaluation software.

[6] = target: T1, human FOLR1 recombinant protein …; test: SPR dual injection on immobilized human FOLR1, 250 nM; competitor (1st VHH, saturating) A4; by the legend the value is of the 2nd VHH
Description: as §1, §2

[7] = target: T2, human folate receptor beta (FOLR2), extracellular domain, recombinant (human, UniProt P14207 17-228, limits assumed); test: ELISA, coated recombinant protein, HA-tagged VHH in bacterial extract
T2 construct: extracellular domain; Bought protein; also called human FOLR2
T2 sequence (P14207 17-228 limits assumed): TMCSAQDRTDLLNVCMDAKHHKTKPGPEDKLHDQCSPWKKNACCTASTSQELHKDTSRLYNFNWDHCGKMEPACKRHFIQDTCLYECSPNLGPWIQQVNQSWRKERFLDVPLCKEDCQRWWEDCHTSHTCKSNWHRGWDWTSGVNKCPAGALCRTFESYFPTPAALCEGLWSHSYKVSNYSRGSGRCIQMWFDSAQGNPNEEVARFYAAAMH
Description: (§3) The day before, 0.1 µg recombinant protein at a concentration of 1 µg/mL in 100 mM NaHCO3, pH 8.2 was coated in a 96-well ELISA plate (Nunc MaxiSorp). Per VHH clone also a blank coated well was foreseen (only buffer). The wells were overcoated with protein-free T20 (PBS) blocking buffer (Pierce). After washing with PBS, pH7.4, 0.05% Tween, VHH-containing bacterial extract was added to every well. Binding of HA-tagged VHHs was detected by using mouse anti-HA.11 epitope tag (clone 16B12, Biolegend) as the primary Ab and goat anti-mouse IgG (whole molecule) alkaline phosphatase conjugate (Sigma-Aldrich) as the secondary Ab, with thorough washing with PBS, pH 7.4, 0.05% Tween in between. Signals were developed using phosphatase substrate (Sigma-Aldrich) in AP blot buffer (100 mM NaCl, 50 mM MgCl2, 100 mM Tris, pH 9.5). The absorbance was determined at 405 nm using an absorbance microplate reader (Molecular Devices). Per clone the ratio was determined between the absorbance in the antigen-coated well versus the well without antigen.

[8] = target: T3, human folate receptor gamma (FOLR3), recombinant (human, UniProt P41439 23-245, limits assumed); test: as above
T3 construct: extracellular domain; Bought protein; also called human FOLR3
T3 sequence (P41439 23-245 limits assumed): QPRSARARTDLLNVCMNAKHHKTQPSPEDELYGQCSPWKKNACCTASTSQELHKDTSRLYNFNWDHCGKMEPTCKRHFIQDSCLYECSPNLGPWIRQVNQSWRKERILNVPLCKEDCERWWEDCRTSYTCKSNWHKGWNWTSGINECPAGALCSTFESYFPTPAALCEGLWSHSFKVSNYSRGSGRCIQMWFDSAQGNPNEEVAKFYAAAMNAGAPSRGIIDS
Description: as §3

[9] = target: T4, murine FOLR1, extracellular domain, recombinant (murine, UniProt P35846 25-232); test: as above
T4 construct: extracellular domain; Bought protein; also called mouse FOLR1
T4 sequence (P35846 25-232 limits assumed): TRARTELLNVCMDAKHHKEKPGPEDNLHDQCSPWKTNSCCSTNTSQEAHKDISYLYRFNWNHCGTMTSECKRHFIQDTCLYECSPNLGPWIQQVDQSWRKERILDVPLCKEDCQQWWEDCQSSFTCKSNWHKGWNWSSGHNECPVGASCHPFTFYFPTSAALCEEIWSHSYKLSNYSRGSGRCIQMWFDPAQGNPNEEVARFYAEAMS
Description: as §3

[10] = target: T2, human folate receptor beta (FOLR2), …; test: ELISA; coated recombinant protein, HA-tagged VHH in bacterial extract, anti-HA detection; A405 antigen well / blank well
Description: as §3

[11] = target: T3, human folate receptor gamma (FOLR3), …; test: as above
Description: as §3

[12] = target: T4, murine FOLR1, extracellular domain, …; test: as above
Description: as §3

[13] = target: human FOLR1 recombinant protein (extracellular domain of human folate receptor alpha) (human) (UniProt P15328); test: as above
Chain of human FOLR1 recombinant protein (extracellular domain of human folate receptor alpha) (human) (P15328 25-233): as the sequence (P15328 25-233) above

[14] = target: T5, human FOLR1 expressed on SKOV-3 ovarian carcinoma cells (human, UniProt P15328 25-234); test: cellular retention on SKOV-3 cells: 10 nM 131I-VHH 1 h at 4 C, then up to 24 h at 37 C; membrane-bound plus internalized fraction
T5 construct: Naturally expressed receptor on SKOV-3 cells; also called human FOLR1pos SKOV-3 cancer cells; human FOLR1-expressing cell line SKOV-3
T5 sequence (P15328 25-234 limits assumed): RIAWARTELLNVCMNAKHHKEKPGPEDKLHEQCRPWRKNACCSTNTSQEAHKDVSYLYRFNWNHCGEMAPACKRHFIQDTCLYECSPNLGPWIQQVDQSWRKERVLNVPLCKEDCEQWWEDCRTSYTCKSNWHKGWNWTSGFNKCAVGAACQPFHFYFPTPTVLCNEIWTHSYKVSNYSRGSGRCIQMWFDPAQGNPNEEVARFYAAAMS
Description: The in vitro cellular retention of the different His₆- and untagged ¹³¹I-labeled VHHs was assessed on the same cancer cells. In this particular case, human FOLR1^pos SKOV-3 cancer cells were incubated with 10 nM ¹³¹I-labelled VHHs for 1h at 4° C., after which the unbound fraction was collected. A 100-fold excess of the corresponding unlabeled VHH to assess non-specific binding. Next, the cells were incubated with fresh medium up to 24 h at 37° C., after which the dissociated fraction was collected. Afterwards, the cells were washed with 0.05 M glycine pH 2.8 to collect the membrane-bound fraction. Finally, cells were solubilized with 1 M NaOH at room temperature to collect the internalized fraction. The sum of the membrane-bound and internalized fractions corresponds to the total cell-associated fraction.

[15] = target: T5, human FOLR1 expressed on SKOV-3 ovarian …; test: saturation binding of 131I-labelled untagged VHH on SKOV-3 cells
[16] = target: T1, human FOLR1 recombinant protein …; test: SPR dual injection on immobilized human FOLR1, 250 nM; competitor (1st VHH, saturating) A1; by the legend the value is of the 2nd VHH
Description: as §1, §2

loss in response level of VHH 2 relative to VHH 2 injected alone [1]: -100%
Kd [2]: 0.04 nM
koff [2]: 0.00014 s⁻¹
kon [2]: 3.6e+06 M⁻¹ s⁻¹
loss in response level of VHH 2 relative to VHH 2 injected alone [3]: -98%
loss in response level of VHH 2 relative to VHH 2 injected alone [4]: -91%
Kd [5]: 0.44 nM
koff [5]: 0.00019 s⁻¹
kon [5]: 430000 M⁻¹ s⁻¹
loss in response level of VHH 2 relative to VHH 2 injected alone [6]: -98%
B1: His6-tagged variant of VHH A1 (VHH)
VHH: DVQLVESGGGLVQPGGSLRLSCAASESIFSRNHMSWYRQAPGKQRELAAIITSDGNTNYPDSVKGRFTISRDNAKNTVYLQMNSLKPEDTAVYYCNTFGRSVAGFYDYWGQGTQVTVSS
notes: Purified, unlabelled; also called A1 His6-tag

binding result [7]: no binding
binding result [8]: no binding
binding result [9]: no binding
signal-to-background ratio [10]: ~1
signal-to-background ratio [11]: ~1
signal-to-background ratio [12]: ~1
signal-to-background ratio [13]: > 20
B2: HA-tagged variant of VHH A5 (VHH)
VHH: QVQLQESGGGLVQAGGSLRLSCGVSGNIFSMNLMGWYRQPPGKEREWVALITKDGSTNYEDSVKGRFTISRDNAKNTVSLQMNSLKPEDTAVYYCNAQDGSGWIRAWGWDWGQGTQVTVSS
notes: Used as VHH-containing bacterial (periplasmic) extract in ELISA; also called A5 HA-tag

cell-associated fraction of initial bound activity after 24 h [14]: 15%
EC50 [15]: 5.8 nM
B3: 131I-labeled untagged VHH A3 (VHH)
VHH: B2 VHH with Q1D, Q5V, I28M, E46D, L50V, E60A, A97V
modifications: [131I]SGMIB conjugated to lysine side-chain amine groups

loss in response level of VHH 2 relative to VHH 2 injected alone [16]: -96%
loss in response level of VHH 2 relative to VHH 2 injected alone [1]: -100%
Kd [2]: 14 nM
koff [2]: 0.018 s⁻¹
kon [2]: 1.3e+06 M⁻¹ s⁻¹
loss in response level of VHH 2 relative to VHH 2 injected alone [3]: -99%
loss in response level of VHH 2 relative to VHH 2 injected alone [6]: -98%
B4: His6-tagged variant of VHH A5 (VHH)
VHH: B2 VHH with Q1D, Q5V
notes: Purified, unlabelled; also called A5 His6-tag

binding result [7]: no binding
binding result [8]: no binding
binding result [9]: no binding
signal-to-background ratio [10]: ~1
signal-to-background ratio [11]: ~1
signal-to-background ratio [12]: ~1
signal-to-background ratio [13]: > 20
B5: HA-tagged variant of VHH A4 (VHH)
VHH: QVQLQESGGGLARAGGSLRLSCAASGRAFSSTYAMGWFRQAPGKEREFVADINWSEGSPMYIDSVKDRFTISRDNARNSLYLQMNSLKSEDTAVYYCAARRFGQGYEYWGQGTQVTVSS
notes: Used as VHH-containing bacterial (periplasmic) extract in ELISA; also called A4 HA-tag

loss in response level of VHH 2 relative to VHH 2 injected alone [16]: -97%
loss in response level of VHH 2 relative to VHH 2 injected alone [1]: -100%
Kd [2]: 4.3 nM
koff [2]: 0.0057 s⁻¹
kon [2]: 1.3e+06 M⁻¹ s⁻¹
loss in response level of VHH 2 relative to VHH 2 injected alone [3]: -99%
loss in response level of VHH 2 relative to VHH 2 injected alone [4]: -91%
B6: His6-tagged variant of VHH A4 (VHH)
VHH: B5 VHH with Q1D, Q5V
notes: Purified, unlabelled; also called A4 His6-tag
